Results on 1 molecule are retold here after article PMC7668070 (2020).

The target of the experiment is WT ACE2(740)-Fc (human, UniProt Q9BYF1 18-740). Nature of the experiment: BLI.

B1: HCoV-NL63 spike RBD (domain or fragment)
chain: QHTDINFTATASFGGSCYVCKPHQVNISLNGNTSVCVRTSHFSIRYIYNRVKSGSPGDSSWHIYLKSGTCPFSFSKLNNFQKFKTICFSTVEVPGSCNFPLEATWHYTSYTIVGALYVTWSEGNSITGVPYPVSGI
In the case of B1, binding was put at a Kd of 22 nM.
